Target: T1, GST-SerRS fusion protein (full-length human SerRS) (human, UniProt P49591 1-514)
T1 construct: also called GST-tagged SerRS
Experiment: pull-down; GST or GST-SerRS fusion proteins (full-length or domain fragments) incubated with recombinant His-tagged SIRT2 for two hours and pulled down on Glutathione-Sepharose 4B; 20 mM HEPES pH 7.9, 150 mM NaCl, 0.5 mM EDTA, 10% glycerol, 0.1% Triton X-100, 1 mM DTT; SIRT2 detected with anti-His6
Details: both partners purified

T1 sequence (P49591 whole entry, the tested form may be a part): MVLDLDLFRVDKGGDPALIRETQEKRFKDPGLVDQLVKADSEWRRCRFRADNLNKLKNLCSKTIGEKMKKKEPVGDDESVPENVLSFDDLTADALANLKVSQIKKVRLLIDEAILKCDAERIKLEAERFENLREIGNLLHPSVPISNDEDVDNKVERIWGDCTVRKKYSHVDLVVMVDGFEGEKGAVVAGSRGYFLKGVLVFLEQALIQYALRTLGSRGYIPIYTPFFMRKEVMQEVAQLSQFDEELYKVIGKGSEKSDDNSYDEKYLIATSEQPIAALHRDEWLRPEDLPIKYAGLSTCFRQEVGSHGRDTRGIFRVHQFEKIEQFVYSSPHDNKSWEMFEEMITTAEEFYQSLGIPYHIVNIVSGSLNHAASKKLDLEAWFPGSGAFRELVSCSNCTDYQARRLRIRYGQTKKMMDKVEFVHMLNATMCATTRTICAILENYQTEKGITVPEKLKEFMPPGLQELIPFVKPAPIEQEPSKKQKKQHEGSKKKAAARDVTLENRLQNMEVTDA

B1: purified His-tagged human SIRT2 (enzyme, UniProt Q8IXJ6 1-389, looked up)
chain: MAEPDPSHPLETQAGKVQEAQDSDSDSEGGAAGGEADMDFLRNLFSQTLSLGSQKERLLDELTLEGVARYMQSERCRRVICLVGAGISTSAGIPDFRSPSTGLYDNLEKYHLPYPEAIFEISYFKKHPEPFFALAKELYPGQFKPTICHYFMRLLKDKGLLLRCYTQNIDTLERIAGLEQEDLVEAHGTFYTSHCVSASCRHEYPLSWMKEKIFSEVTPKCEDCQSLVKPDIVFFGESLPARFFSCMQSDFLKVDLLLVMGTSLQVQPFASLISKAPLSTPRLLINKEKAGQSDPFLGMIMGLGGGMDFDSKKAYRDVAWLGECDQGCLALAELLGWKKELEDLVRREHASIDAQSGAGVPNPSTSASPKKSPPPAKDEARTTEREKPQ
notes: The SIRT2 of the deacetylase assay is called only 'recombinant human SIRT2'; it may have come from the CycLex kit; also called recombinant SIRT2; His-tagged SIRT2; not shown: His tag, C-terminal, kept
B1: binds.

— PMC4057782, “tRNA synthetase counteracts c-Myc to develop functional vasculature” (eLife, 2014)
